The values that follow come from paper PMC11551746, “The Swi5–Sfr1 complex regulates Dmc1- and Rad51-driven DNA strand exchange proceeding through two distinct three-stranded intermediates by different mechanisms” (Nucleic Acids Research, 2024).

For series [1], the target named is T1, Rad51 (Schizosaccharomyces pombe, UniProt P36601).
T1 construct: purified as described previously; filament on ssDNA
T1 sequence (P36601 1-365): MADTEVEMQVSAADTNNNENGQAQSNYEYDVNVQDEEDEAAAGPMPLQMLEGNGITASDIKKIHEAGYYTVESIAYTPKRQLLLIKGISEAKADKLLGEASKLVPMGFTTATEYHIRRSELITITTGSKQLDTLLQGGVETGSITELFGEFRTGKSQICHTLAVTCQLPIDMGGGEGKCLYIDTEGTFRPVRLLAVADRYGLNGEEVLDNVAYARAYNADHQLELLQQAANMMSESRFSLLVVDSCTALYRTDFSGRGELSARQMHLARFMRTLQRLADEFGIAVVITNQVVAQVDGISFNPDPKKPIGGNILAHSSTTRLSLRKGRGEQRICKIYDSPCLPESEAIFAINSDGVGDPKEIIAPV
In words: fluorescence anisotropy of Rad51-ssDNA filament. The class given is binding. The following applies: 1 mM AMP-PNP, 3 mM MgCl2, 100 mM KCl, pH 7.5, 25 °C, TAMRA-oligo dT; compared with ATP.

In series [2] the target is T2, Dmc1 (Schizosaccharomyces pombe, UniProt O42634).
T2 construct: purified as described previously; filament on ssDNA
T2 sequence (O42634 1-332): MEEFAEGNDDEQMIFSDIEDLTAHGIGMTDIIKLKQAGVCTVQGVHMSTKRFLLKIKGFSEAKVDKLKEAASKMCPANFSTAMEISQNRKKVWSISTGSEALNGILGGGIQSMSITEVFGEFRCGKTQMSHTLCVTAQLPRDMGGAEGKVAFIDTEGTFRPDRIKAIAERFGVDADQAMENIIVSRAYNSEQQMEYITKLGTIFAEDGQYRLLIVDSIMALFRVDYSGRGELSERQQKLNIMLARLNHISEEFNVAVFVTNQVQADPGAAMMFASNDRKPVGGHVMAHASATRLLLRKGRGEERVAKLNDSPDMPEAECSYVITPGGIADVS
In words: fluorescence anisotropy of Dmc1-ssDNA filament; FRET strand exchange. Format: binding. The following applies: 1 mM AMP-PNP, 3 mM MgCl2, 100 mM KCl, pH 7.5, 25 °C, TAMRA-oligo dT (anisotropy); compared with ATP. For orientation: Polarisation of emitted light reports the rotation of a fluorescent probe.

The target in series [3] is T2, Dmc1. Briefly: FRET real-time DNA strand pairing and displacement. The following applies: 1 mM ATP, 5 mM MgCl2, 25 mM KCl, pH 7.5, 30 °C, 83-mer ssDNA, 40-83 bp dsDNA; compared with ADP. Format: biochemical.
For series [4], the target named is T3, Dmc1 (Schizosaccharomyces pombe? (fission …, UniProt O42634 1-332)).
T3 sequence: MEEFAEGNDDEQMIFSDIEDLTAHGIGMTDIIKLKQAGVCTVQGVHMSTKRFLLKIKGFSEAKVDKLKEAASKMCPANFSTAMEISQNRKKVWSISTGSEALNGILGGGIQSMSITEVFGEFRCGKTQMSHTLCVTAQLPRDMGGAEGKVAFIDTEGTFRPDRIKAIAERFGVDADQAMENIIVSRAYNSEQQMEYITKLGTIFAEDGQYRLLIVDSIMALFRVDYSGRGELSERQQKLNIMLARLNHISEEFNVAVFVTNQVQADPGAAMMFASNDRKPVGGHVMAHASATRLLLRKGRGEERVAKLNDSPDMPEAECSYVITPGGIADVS
Briefly: fluorescence anisotropy; 1 mM ADP, Mg2+; Hill fit; 30 mM HEPES-KOH pH 7.5, 100 mM KCl, 3 mM MgCl2 or CaCl2, 1 mM DTT, 5% glycerol, 1 mM adenine nucleotide, 3 uM (nt) TAMRA-dT72, 25 C. The following applies: protein: recombinant; label: 5' TAMRA; single-stranded.

For series [5], the target named is T3, Dmc1. In words: fluorescence anisotropy; 1 mM AMP-PNP, Mg2+; Hill fit; 30 mM HEPES-KOH pH 7.5, 100 mM KCl, 3 mM MgCl2 or CaCl2, 1 mM DTT, 5% glycerol, 1 mM adenine nucleotide, 3 uM (nt) TAMRA-dT72, 25 C. The following applies: protein: recombinant; label: 5' TAMRA; single-stranded.
Series [6] concerns the target T4, Rad51 (Schizosaccharomyces pombe? (fission …, UniProt P36601 1-365)).
T4 sequence: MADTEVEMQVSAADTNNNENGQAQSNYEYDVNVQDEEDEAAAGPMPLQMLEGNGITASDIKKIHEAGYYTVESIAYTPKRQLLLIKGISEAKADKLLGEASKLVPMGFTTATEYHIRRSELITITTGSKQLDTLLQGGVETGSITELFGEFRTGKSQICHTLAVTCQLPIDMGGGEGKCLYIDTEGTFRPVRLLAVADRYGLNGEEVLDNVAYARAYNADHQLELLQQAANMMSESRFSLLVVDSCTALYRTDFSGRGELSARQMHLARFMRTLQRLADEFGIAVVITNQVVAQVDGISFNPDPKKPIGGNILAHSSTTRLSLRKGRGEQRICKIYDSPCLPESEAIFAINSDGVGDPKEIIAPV
In words: fluorescence anisotropy; 1 mM ATP, 3 mM Mg2+; Hill fit; 30 mM HEPES-KOH pH 7.5, 100 mM KCl, 3 mM MgCl2 or CaCl2, 1 mM DTT, 5% glycerol, 1 mM adenine nucleotide, 3 uM (nt) TAMRA-dT72, 25 C. The following applies: protein: recombinant; label: 5' TAMRA; single-stranded.

The target in series [7] is T3, Dmc1. The description is as above. The following applies: protein: recombinant; label: 5' TAMRA; single-stranded.
For series [8], the target named is T3, Dmc1. Briefly: fluorescence anisotropy; 3 mM Ca2+ in place of Mg2+, ATP?; Hill fit; 30 mM HEPES-KOH pH 7.5, 100 mM KCl, 3 mM MgCl2 or CaCl2, 1 mM DTT, 5% glycerol, 1 mM adenine nucleotide, 3 uM (nt) TAMRA-dT72, 25 C. The following applies: protein: recombinant; label: 5' TAMRA; single-stranded.
Series [9] deals with T3, Dmc1. Briefly: fluorescence anisotropy; ssDNA preincubated with Swi5-Sfr1 (0.1 uM or more), ATP?, Mg2+; Hill fit; 30 mM HEPES-KOH pH 7.5, 100 mM KCl, 3 mM MgCl2 or CaCl2, 1 mM DTT, 5% glycerol, 1 mM adenine nucleotide, 3 uM (nt) TAMRA-dT72, 25 C. The following applies: protein: recombinant; label: 5' TAMRA; single-stranded.

Turning to `Nc1ncnc2c1ncn2[C@@H]1O[C@H](COP(=O)(O)OP(=O)(O)NP(=O)(O)O)[C@@H](O)[C@H]1O` [AMP–PNP], the “fluorescence anisotropy of Rad51-ssDNA filament” value on Rad51 [1] was “AMP–PNP significantly stabilized the Rad51 filament”. Besides, on Dmc1 [2], the “fluorescence anisotropy of Dmc1-ssDNA filament; FRET strand exchange” value is on record as “AMP–PNP strongly stabilizes the Dmc1–ssDNA filament”.

`Nc1ncnc2c1ncn2[C@@H]1O[C@H](COP(=O)(O)OP(=O)(O)OP(=O)(O)O)[C@@H](O)[C@H]1O` [ATP]: on Dmc1 [3], the “FRET real-time DNA strand pairing and displacement” value is given as “the ATP-bound form of Dmc1 is sufficient for three-stranded intermediate formation”.

B1: [TAMRA]dT72 (ssDNA)
DNA: TTTTTTTTTTTTTTTTTTTTTTTTTTTTTTTTTTTTTTTTTTTTTTTTTTTTTTTTTTTTTTTTTTTTTTTT
Turning to B1, the Kd – broadly, a measure of binding affinity in units of concentration – with Dmc1 [4] is 1970 nM; with Dmc1 [5], 547 nM; with Rad51 [6], 308 nM; with Dmc1 [7], 1220 nM; with Dmc1 [8] it was 227 nM; with Dmc1 [9], around 510 nM.
